Data from patent US20230382984A1, “TRABD PROTEIN, AND MONOCLONAL ANTIBODY THEREOF, AND ISOLATION, AMPLIFICATION AND USE THEREOF” (priority 2022, published 2023).
Values belong to the molecule of their own block, whether it stands above or below them.

Tests used:
[1] = target: T1, TRABD2A protein (Homo sapiens, UniProt Q86V40); details: different view; metal ions; cited from earlier work
T1 sequence (Q86V40 22-480): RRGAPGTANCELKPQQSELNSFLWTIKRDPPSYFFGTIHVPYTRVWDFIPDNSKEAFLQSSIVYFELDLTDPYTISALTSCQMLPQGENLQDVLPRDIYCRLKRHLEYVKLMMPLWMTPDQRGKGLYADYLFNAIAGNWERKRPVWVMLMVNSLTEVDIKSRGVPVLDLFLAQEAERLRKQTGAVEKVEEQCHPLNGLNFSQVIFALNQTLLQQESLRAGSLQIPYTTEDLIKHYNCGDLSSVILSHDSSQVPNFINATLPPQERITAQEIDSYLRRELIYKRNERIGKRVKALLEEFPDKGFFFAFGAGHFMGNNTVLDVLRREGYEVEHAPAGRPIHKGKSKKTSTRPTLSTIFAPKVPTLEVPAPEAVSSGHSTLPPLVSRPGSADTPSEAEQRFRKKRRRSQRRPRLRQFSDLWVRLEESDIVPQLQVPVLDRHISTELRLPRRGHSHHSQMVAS

[2] = target: T2, TRABD2A metalloprotease on CD8^+ T cells (Homo sapiens, UniProt Q86V40); assay: Killing activity of CD8+ T cells on target cells after metal cofactor intervention of TRABD2A; type: cell-based; details: metal cations at different concentrations acting on CD8+ T cells; target cells CEM.T2 and MGC; FIG. 4A
T2 construct: action of metal ions Mn^2+, Co^2+ and Ni^2+ on TRABD2A metalloprotease on CD8^+ T cells; endogenous in cells
T2 sequence (Q86V40 22-480): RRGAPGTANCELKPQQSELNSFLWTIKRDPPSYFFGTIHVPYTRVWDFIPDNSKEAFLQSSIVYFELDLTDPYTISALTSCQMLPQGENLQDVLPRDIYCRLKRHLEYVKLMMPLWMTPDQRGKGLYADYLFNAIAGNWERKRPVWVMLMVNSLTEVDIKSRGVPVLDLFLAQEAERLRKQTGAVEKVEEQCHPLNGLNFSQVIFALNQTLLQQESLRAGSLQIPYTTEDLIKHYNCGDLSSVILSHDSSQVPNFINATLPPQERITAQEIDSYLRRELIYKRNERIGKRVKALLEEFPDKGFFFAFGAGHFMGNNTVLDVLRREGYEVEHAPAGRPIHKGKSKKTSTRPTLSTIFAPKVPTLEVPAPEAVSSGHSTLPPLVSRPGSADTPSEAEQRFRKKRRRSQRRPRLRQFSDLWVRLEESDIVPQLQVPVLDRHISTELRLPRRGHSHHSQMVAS
Source text: Since TRABD2A is a metalloprotease and its activity is affected by metal ions, and the metal ion Mn^2+ having an accelerating effect on TRABD2A metalloprotease activity and metal ions Co^2+ and Ni^2+ having an inhibiting effect were examined. The effect of the TRABD2A protein on CD8^+ T cells was observed by the action of metal ions Mn^2+, Co^2+ and Ni^2+ on TRABD2A metalloprotease on CD8^+ T cells.

[3] = tested on: TRABD protease; details: early study; metal ions; cited from earlier work
[4] = tested on: CD8^+ T cells and target cells; assay: CCK8 and flow cytometry detection of toxic effect of metal cations; details: concentration of 20 μM
Source text: FIG. 4A show the effect on the target cell killing ability of CD8^+ T cells after metal cofactor intervention of TRABD2A; • A: detection of the killing activity of the CD8^+ T cells on target cells CEM.T2 when metal cations Co^2+, Ni^2+ and Mn^2+ at different concentrations act on CD8^+ T cells; • B: detection of the killing activity of the CD8^+ T cells on target cells MGC when metal cations Co^2+, Ni^2+ and Mn^2+ at different concentrations act on CD8^+ T cells; • C: CCK8 and flow cytometry detection of the toxic effect of metal cations Co^2+, Ni^2+ and Mn^2+ at different concentrations on target cells.

[5] = tested on: target cells; assay: CCK8 and flow cytometry detection of toxic effect of Ni2+ on target cells; type: cell-based; details: concentration 20 μM
[6] = target: T3, TRABD2B metalloprotease on CD8^+ T cells (Homo sapiens, UniProt A6NFA1); assay: Killing activity of CD8+ T cells on target cells after metal cofactor intervention with TRABD2B; type: cell-based; details: Ni2+ at different concentrations; target cells CEM.T2; FIG. 4B
T3 construct: action of metal ion Ni^2+ upon TRABD2B metalloprotease on CD8^+ T cells; endogenous in cells
T3 sequence (A6NFA1 20-486): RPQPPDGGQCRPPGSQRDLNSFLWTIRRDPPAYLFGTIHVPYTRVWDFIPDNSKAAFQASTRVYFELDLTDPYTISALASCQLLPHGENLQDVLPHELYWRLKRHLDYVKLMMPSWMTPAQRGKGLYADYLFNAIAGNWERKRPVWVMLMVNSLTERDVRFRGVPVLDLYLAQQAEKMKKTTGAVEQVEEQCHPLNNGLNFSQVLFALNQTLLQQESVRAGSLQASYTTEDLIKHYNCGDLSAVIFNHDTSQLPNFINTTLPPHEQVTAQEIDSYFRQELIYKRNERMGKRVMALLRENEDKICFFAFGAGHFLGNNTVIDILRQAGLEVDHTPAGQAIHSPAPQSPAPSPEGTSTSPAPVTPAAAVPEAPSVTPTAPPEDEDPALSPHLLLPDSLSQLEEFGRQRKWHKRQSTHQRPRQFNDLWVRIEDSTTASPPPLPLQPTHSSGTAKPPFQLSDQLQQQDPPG
Source text: Since TRABD2B is a metalloprotease whose activity is affected by metal ions, metal ion Mn^2+ that promotes the TRABD2B metalloprotease activity was examined. The effect of the TRABD2B protein on CD8^+ T cells was observed by the action of metal ion Ni^2+ upon TRABD2B metalloprotease on CD8^+ T cells.

[7] = target: TRABD2A protein (antigen) (UniProt Q86V40); assay: ELISA; negative control; fit value beyond top concentration
[8] = target: T1, TRABD2A protein; assay: Binding of synthesized TRABD2A antibodies to antigen; details: detection with antigen; FIG. 6A
Source text: Three antibodies anti-TRABD2A-1 (amino acid sequences of heavy and light chains are set forth in SEQ ID NOs: 7 and 8, respectively), anti-TRABD2A-2 (amino acid sequences of heavy and light chains are set forth in SEQ ID NOs: 13 and 14, respectively) and negative control (amino acid sequences of heavy and light chains are set forth in SEQ ID NOs: 19 and 20, respectively) synthesized in Example 5-1 were used. […] After concentration of the antibodies, the protein concentrations were measure by A280, and the concentrations of anti-TRABD2A-1, anti-TRABD2A-2 and negative control were 0.92 mg/mL, 1.6 mg/mL and 2.98 mg/mL, respectively. The proteins were snap frozen in liquid nitrogen and stored at −80° C. for later use.

[9] = target: T4, TRABD2A protein on CD8^+ T cells (Homo sapiens, UniProt Q86V40); assay: Killing of target cells by CD8+ T cells after intervention with TRABD2A antibody; type: cell-based; details: antibody removed or unremoved after incubation; FIG. 7A
T4 construct: action of metal ions Mn^2+, Co^2+ and Ni^2+ on TRABD2A metalloprotease on CD8^+ T cells; endogenous in cells
T4 sequence (Q86V40 22-480): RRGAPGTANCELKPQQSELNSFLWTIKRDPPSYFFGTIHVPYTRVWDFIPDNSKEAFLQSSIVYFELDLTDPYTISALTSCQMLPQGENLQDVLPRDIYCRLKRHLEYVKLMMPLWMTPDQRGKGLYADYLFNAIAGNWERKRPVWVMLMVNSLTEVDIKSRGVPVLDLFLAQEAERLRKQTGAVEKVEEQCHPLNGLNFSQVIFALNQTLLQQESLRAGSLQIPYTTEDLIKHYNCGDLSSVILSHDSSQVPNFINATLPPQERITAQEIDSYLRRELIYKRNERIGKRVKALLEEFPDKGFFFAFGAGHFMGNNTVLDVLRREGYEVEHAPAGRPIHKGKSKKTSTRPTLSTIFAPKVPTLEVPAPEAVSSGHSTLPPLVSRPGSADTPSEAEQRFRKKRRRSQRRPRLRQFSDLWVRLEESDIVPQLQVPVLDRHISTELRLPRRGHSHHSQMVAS
Experimental: Two modes were adopted for intervening with TRABD2A protein on CD8^+ T cells, and the difference of the two modes was that the CD8^+ T cells, after incubation with the antibody, kill the target cells with residual blocking antibody removed or unremoved.

[10] = target: T5, TRABD2A protein (antigen) (UniProt Q86V40 22-480); assay: ELISA
T5 chain: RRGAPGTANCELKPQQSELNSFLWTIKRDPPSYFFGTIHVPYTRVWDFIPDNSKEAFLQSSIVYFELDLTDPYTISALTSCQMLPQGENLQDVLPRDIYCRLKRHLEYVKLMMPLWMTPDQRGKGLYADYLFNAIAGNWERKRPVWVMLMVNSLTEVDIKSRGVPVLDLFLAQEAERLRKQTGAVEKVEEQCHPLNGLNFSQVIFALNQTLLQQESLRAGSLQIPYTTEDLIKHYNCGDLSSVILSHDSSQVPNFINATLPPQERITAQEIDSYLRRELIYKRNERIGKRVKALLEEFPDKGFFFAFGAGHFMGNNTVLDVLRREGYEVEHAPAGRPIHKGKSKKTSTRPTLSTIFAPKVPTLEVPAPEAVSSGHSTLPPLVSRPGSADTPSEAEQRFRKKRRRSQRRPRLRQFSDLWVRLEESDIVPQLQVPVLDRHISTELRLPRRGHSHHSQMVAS

[11] = tested on: TRABD2A and TRABD2B proteins; assay: Killing of target cells by CD8+ T cells under intervention with bispecific anti-TRABD2A/2B antibody; type: cell-based, human; details: FIG. 7C
Source text: The effect of the bispecific antibody blocking both TRABD2A and TRABD2B proteins on target cell killing ability of CD8^+ T cells were examined.

[12] = target: T1, TRABD2A protein; assay: Binding of anti-TRABD2A/2B bispecific antibody to antigen TRABD2A protein; details: detection with antigen; FIG. 6C
Experimental: (§1) The bispecific antibody (amino acid sequences of heavy and light chains are set forth in SEQ IN NOs: 29 and 30, respectively) and negative control (amino acid sequences of heavy and light chains are set forth in SEQ IN NOs: 33 and 24, respectively) antibody synthesized in Example 5-3 were used. […] After the antibodies were concentrated, the protein concentration of anti-TRABD2A/2B was 1.23 mg/mL and that of the negative control was 1.02 mg/mL, as measured by A280. The proteins were snap frozen in liquid nitrogen and stored at −80° C. for later use.

[13] = target: T6, TRABD2B protein (Homo sapiens, UniProt A6NFA1); assay: Binding of anti-TRABD2A/2B bispecific antibody to antigen TRABD2B protein; details: detection with antigen; FIG. 6C
T6 sequence (A6NFA1 20-486): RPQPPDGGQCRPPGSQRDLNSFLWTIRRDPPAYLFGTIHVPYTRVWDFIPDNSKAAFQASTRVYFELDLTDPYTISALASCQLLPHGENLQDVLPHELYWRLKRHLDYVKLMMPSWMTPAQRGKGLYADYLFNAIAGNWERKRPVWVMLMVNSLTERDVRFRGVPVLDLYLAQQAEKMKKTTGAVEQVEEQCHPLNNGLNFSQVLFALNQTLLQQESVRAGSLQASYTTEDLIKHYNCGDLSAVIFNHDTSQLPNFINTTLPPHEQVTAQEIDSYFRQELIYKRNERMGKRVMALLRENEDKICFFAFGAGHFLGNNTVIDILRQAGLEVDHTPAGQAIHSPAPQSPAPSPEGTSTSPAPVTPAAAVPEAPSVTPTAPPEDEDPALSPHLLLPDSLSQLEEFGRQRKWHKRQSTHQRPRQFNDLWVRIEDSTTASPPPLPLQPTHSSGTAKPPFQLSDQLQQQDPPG
Experimental: as §1

Molecule: [Mg+2] [Mg^2+]
activity of the TRABD2A protein [1]: independent

Molecule: [Mn+2] [Mn^2+]
tumor killing ability of CD8^+ T cells [2]: not enhanced | TRABD protease activity [3]: increase

Molecule: [Ni+2] [Ni^2+]
toxic effect on CD8^+ T cells and target cells [4]: little toxic effect | activity of the TRABD2A protein [1]: inhibited | tumor killing ability of CD8^+ T cells [2]: enhanced | toxic effect on cells [5]: little toxic effect | TRABD protease activity [3]: opposite effect | tumor killing ability of CD8^+ T cells [6]: enhanced

B3: anti-TRABD2A-1 (antibody)
heavy: DASTLQRGVPSRFGGSGQMTQSPSSASTLQRGVPSRFGGSGSQSINRASTLQRGVPSRFGGSGGKAPKLVIYAASSLQSGVPSRFSGSGSGTDFTLTISSLQ
light: ASTLQRGVISWVRASTLQRGVPSRFGGSGPIFGTANYAQKFQGRVTITADESTSTAYMELSSLRSEDTAVYYASTLQRGVPSRFGGSGYYWGQGTPVTVSS
binding to antigen [8]: high binding efficiency | effect on target cell killing ability of CD8^+ T cells [9]: enhanced effect | EC50 [10]: 0.306 µg/mL

Further lines, with some results ahead:

EC50 [7]: 14.1 µg/mL
Molecule: negative control antibody of Example 6-1

binding to antigen [8]: high binding efficiency | EC50 [10]: 0.128 µg/mL
B1: anti-TRABD2A-2 (antibody)
heavy: APKLLIYAASSLRSGVPSRFSGSTCRASQSINRYLNWYQAPKLLIYAASSLRSGVPSRFSGSYAASSLQSGVPSRFSGSGSGTDFTLTISSLQPEDFATYYCQQGGTKV
light: YYWGQGTPVTVSKKPGSSVKVSAPKLLIYAASSLRSGVPSRFSGSGTFSSYAISWVRQAPGQGLEWMGGIIPIFGTANYAQKFQGRVTITADESTSTAYMELSSLRSEDTA
effect on target cell killing ability of CD8^+ T cells [9]: enhanced effect

binding to TRABD2A [12]: capable of binding | binding to TRABD2B [13]: capable of binding
B2: anti-TRABD2A/2B bispecific antibody: bispecific antibody recognizing both TRABD2A and TRABD2B; heavy and light chains SEQ ID NOs: 29 and 30 (antibody)
heavy: YQSQSINRYLNWYQQKPGKSNYLNWAPKLVIYAASSLQYCQQYNFYPLTFGYLNWYQSSGTYLNWYQQRPGKAPSSGTYQRPGKAPGGTKVSNYLNWYQSN
light: YAQKFQGRVTITVKVSCKASGGTFSSYAISWVRQAPGQGLEWMGQVQLVQSGAEVKKPGSSGIIPIFGTANADESTSTAYMELSSLRSEDTAVYYCARTRGYS
effect on the killing of target cells by CD8^+ T cells [11]: enhancing effect
